Laboratory results reported in the DeepSol protein solubility set.

Assay: soluble on expression in E. coli; label from the status in PepcDB or PDB records

Sequence | soluble on expression in E. coli
CGPQYRFVWKGGEGGIGDAANALDSGKIIAIKGIGGYHIACLTEDDVVLRLRKLLNRPQQPFAVMVRDLSSAERVAELSNEERAELLSPARPIVVVRKKLPFEAVAPELDTIGIMLPYTPLHHLLFQELKADYLVMTSANLPGEPMYIDESIMEKMELDGFLVHNLEIANRVDDSVVKYVGGRRLLIRRSRGFVPQPIKIDIGFN | not soluble
MGSDKIHHHHHHMPTVERHIRGKWACDSCETLIQAPVPPQVIDKGIPTAGLLAQVLVAKYADHLPLYRQERMFGRAGLEIPRSTLAEWVGACGVQLQPLVDALRNTLLEHSVLHADETPVSMLAPGKKKTHKAYVWAYCTTPFADLKAAIYDFAPSRAGEHARTFLGDWRGKLVCDDYAGYKAGFGNGITEIGCMAHARRKFYDLHEANKSELAAKALEYIGGLYEIERETKDLPPDMRREIRQTKAKPLADALHQWMLAHRQKVPDGSGTAKALDYSLKRWEALTRYLDDGAVPIDNNWVENQIRPWALGRSNWLFAGSLRSGQRAAAVMTLIQSAKLNRHDPYAYLKDVLTRLPTQKNNAIDELLPHNWKPAIPNKV | not soluble
MSLSDVSRILKEARSQSRLTTLDYAEQIFDDFMELHGDRHFADDGAIVGGIGLLDGQAVTVIGVQKGKNLQDNLNRNFGQPNPEGYRKALRLMKQAEKFKRPVVTFINTAGAYPGIGAEERGQGEAIARNLLEMSDLKVPIIAIIIGEGGSGGALALAVADKVWMLEHTMYAVLSPEGFASILWKDGSRSIEAAELMKITAGELLKMEVVDKVIPEHGYFSSEIIQMLKTNLIEELKNLDQYPLNDLLEKRYQRFRKYEGHHHHHH | soluble
GHMRRELAIEFSRVTESAALAGYKWLGRGDKNTADGAAVNAMRIMLNQVNIDGTIVIGEGEIDEAPMLYIGEKVGTGRGDAVDIAVDPIEGTRMTAMGQANALAVLAVGDKGCFLNAPDMYMEKLIVGPGAKGTIDLNLPLADNLRNVAAALGKPLSELTVTILAKPRHDAVIAEMQQLGVRVFAIPDGDVAASILTCMPDSEVDVLYGIGGAPEGVVSAAVIRALDGDMNGRLLARHDVKGDNEENRRIGEQELARCKAMGIEAGKVLRLGDMARSDNVIFSATGITKGDLLEGISRKGNIATTETLLIRGKSRTIRRIQSIHYLDRKDPEMQVHIL | soluble
MSLSNAEITHREGVKMLVVRPISMADYEALHTCAVESGHGFTSLPVDQELLTNRITHSEYSFSKPNVTMPGDEGYLMVGVDTETGQVAGTTGIEASIGWDVPFYSYHISTIVHSSPKLGVNNVVKLLTFGNNYTGCSEICTLFLRPQYRQGLNGRLMSKCRFLMMAEHSHRFSKTIFAEMRGVSDADGNSPFWKWLQEHFFSIDFTLADYLTGIGKKGFIADLMPKLPIYVNLLSKEAQAVIGQVHENTRPALVLLEKEGFTCRNYVDIFDAGPTVECELNNIESVRHSVRAIVEVAEHSSSQNFIMCNTSFENFRATAAKAAYSQEDNAVIISPKVAAALEVSTGDYLRILAQEGHHHHHH | soluble
MKIAIIGAGIGGLTAGALLLEKGHDVSIFERQSNISEVGAGIGIGDNVIKKLGKHDLAKGIKNAGQNLSAMNVLDDKGNILSAVKLKEATLNVTLARQTLIELIQSYVNPQCIYTDHDVIKVENVEQHTMVHFSNHASQSFDLCIGSDGLHSVVRQAIHQNAKILYQGYTCFRGLVDDADLHNIDIASEYWGKRGRVGIVPLINNQAYWFITINASEKDPKYQTFEKPHLQAYFNNYPEPVRQILDKQSETGIQKHDLYDMKPLKSFVNQRILLLGDAAHATTPNMGQGAGQAMEDAIVLVNCLAEYDIEKALKRYDKLRVKHTAKVIKRSRKIGKIAQKDNKLVISLRNGVMKRTPNRLLSGQTKFLYKAKHKLEHHHHHH | not soluble
MRVALTIAGSDSGGGAGVQADLKVFFRFGVYGTSALTLVTAQNTLGVQRVHLLPPEVVYAQIESVAQDFPLHAAKTGALGDAAIVEAVAEAVRRFGVRPLVVDPVMVAKSGDPLLAKEAAAALKERLFPLADLVTPNRLEAEALLGRPIRTLKEAEEAAKALLALGPKAVLLKGGHLEGEEAVDLLATRGGVLRFSAPRVHTRNTHGTGCTLSAAIAALLAKGRPLAEAVAEAKAYLTRALKTAPSLGHGHGPLDHWA | soluble
MDAPKAGYAFEYLIETLNDSSHKKFFDVSKLGTKYDVLPYSIRVLLEAAVRNCDGFLMKKEDVMNILDWKTKQSNVEVPFFPARVLLQDFTGIPAMVDFAAMREAVKTLGGDPEKVHPACPTDLTVDHSLQIDFSKCAIQNAPNPGGGDLQKAGKLSPLKVQPKKLPCRGQTTCRGSCDSGELGRNSGTFSSQIENTPILCPFHLQPVPEPETVLKNQEVEFGRNRERLQFFKWSSRVFKNVAVIPPGTGMAHQINLEYLSRVVFEEKDLLFPDSVVGTDSHITMVNGLGILGWGVGGIETEAVMLGLPVSLTLPEVVGCELTGSSNPFVTSIDVVLGITKHLRQVGVAGKFVEFFGSGVSQLSIVDRTTIANMCPEYGAILSFFPVDNVTLKHLEHTGFSKAKLESMETYLKAVKLFRNDQNSSGEPEYSQVIQINLNSIVPSVSGPKRPQDRVAVTDMKSDFQACLNEKVGFKGFQIAAEKQKDIVSIHYEGSEYKLSHGSVVIAAVISCTNNCNPSVMLAAGLLAKKAVEAGLRVKPYIRTSLSPGSGMVTHYLSSSGVLPYLSKLGFEIVGYGCSTCVGNTAPLSDAVLNAVKQGDLVTCGILSGNKNFEGRLCDCVRANYLASPPLVVAYAIAGTVNIDFQTEPLGTDPTGKNIYLHDIWPSREEVHRVEEEHVILSMFKALKDKIEMGNKRWNSLEAPDSVLFPWDLKSTYIRCPSFFDKLTKEPIALQAIENAHVLLYLGDSVTTDHISPAGSIARNSAAAKYLTNRGLTPREFNSYGARRGNDAVMTRGTFANIKLFNKFIGKPAPKTIHFPSGQTLDVFEAAELYQKEGIPLIILAGKKYGSGNSRDWAAKGPYLLGVKAVLAESYEKIHKDHLIGIGIAPLQFLPGENADSLGLSGRETFSLTFPEELSPGITLNIQTSTGKVFSVIASFEDDVEITLYKHGGLLNFVARKFS | soluble
MSLTARIGVVTFPGSLDDRDTQRAIKLAGAEPVALWHKDKDLKQVDAVVLPGGFSYGDYLRAGAISRFSPVMETVIEQAKSGMPVLGICNGFQILTEAHLLPGAMLGNNHLHFICRDQKLRVENADTAWTSDYEAGQEIHIPLKNMDGRYVADERTLDMLEAEGRVAFRYVVGGAAADGYGNPNGSLRDIAGITNEAGNVVGLMPHPEHAVEPLIGTGRTDGLPFFTSILKKLVNAEGHHHHHH | soluble
MKKILVLGGAHIDRRGMIETETAPGASNPGSWMEEAGGGGFNAARNLSRLGFEVRIIAPRGGDVTGEVVAEAARQAGVEDTPFTFLDRRTPSYTAILERDGNLVIALADMDLYKLFTPRRLKVRAVREAIIASDFLLCDANLPEDTLTALGLIARACEKPLAAIAISPAKAVKLKAALGDIDILFMNEAEARALTGETAENVRDWPNILRKAGLSGGVVTRGASEVVAFNGTEKAILHPPLIREVKDVTGAGDAMASGYLAAIAEGKTIREALRQGAAAAAITVQSSFATSQDLSKDSVEAMLGLVPQAEMLA | soluble
MVCSGAPVALIPTSSGAIMLDYPSMRAVALVARTGSFEKAAQVLCVTPSAVSQRIKQLEERLGVVLIVRGNPCVATEKGEWLCRHMDHVGMLESELFRQLPALTEAGDAQERVTLNIATNADSLGTWFLDAVSKFTGGSDYLVNIAVDDQDHTVEWLRGGRVLAAVTAHDKPVQGCRVTPLGVLRYHATASPDFMARHFADGVTPAALARAPGLTFNQKDRLQASWIRTALGEDVSYPTHWLPSTDGFVKASLAGMGWGLNPVQLVAEHLAAGRLVELMPGTPLDIPLYWQVNRLAAERLAGLTANMVGTARVVLMPVG | soluble
KKNLLYLGLTGYLLFALCTRLQAQTDSLQAHRYVTRATMYGVGFTNVFDTYLSPQEYKGIDFRISRETIRMTKLFDGNVSVQNFFQADVGYTHNRADNNNTFSGLVNWNYGLHYQFRLTENFKLLAGGLFDVNGGFVYNLRNSNNPASARAYVNLDASGMAIWHLKIKRYPMVLRYQVNVPMIGLMFSPHYGQSYYEIFSLGNSSGVIQFTSLHNQPSLRQMLSVDLPIGYTKMRFSYLADLQQSNVNGIKTHTYSHVFMVGFVKDLYRVSNKKGANLPPSVRAY | not soluble
MGSDKIHHHHHHMVVESGFTAAQLPWLEGPRQAFLAQLTRQKMPHAQLVGIDSAYGGELLSVFMARAAMCLQPTPAGACGFCKSCQLFDAGNHPDFYHIAADGNQIKVDQIRELCTRLTATAQQSGMRVAIIHHSERLNSAAANALLKTLEEPGKDTLLILQSDTPARLMATVGSRCQRIPFVVPSREIIKNWLAQQCDIKEDVTWCLSVVGGPLQLAESLQSEGGQQSRYQSLLQFRKDWAQSLSSGHLCASLLTISEQQIIDVLKVLYLLIRQVLLKNSHQDAFIHAQLGNLAAKIMGMCHSLSTMPSVNYLALCQSYVLEYREITNK | not soluble
MGSDKIHHHHHHMKIVVTKFGGSSLADSNQFKKVKGIIDSDANRKYIIPSAPGKRTNKDYKITDLLYLCNAHVKNGIPFDDVFKLISQRYTEIVSELNIDMDIAYYLEKVKKNIENGASSDYAASRGEYLNGVILAKYLNAEFIDAAEVIFFDKSGCFDEKKSYEKIKEKVLSCNKAVIPGFYGSSFNGDVKTFSRGGSDVTGSIISAGVNADLYENWTDVSGFLMADPRIVENPKTISKISYKELRELSYMGATVLHEEAIFPVKDSGIPINIKNTNKPSDPGTLILSDTHKEINLGTITGIAGKKNFTVIAIEKALLNSEVGFCRKILSILEMYGVSFEHMPSGVDSVSLVIEDCKLDGKCDKIIEEIKKQCNPDSIEIHPNMALVATVGTGMAKTKGIANKIFTALSKENVNIRMIDQGSSEINVIVGVETVDFEKAVKSIYNAFN | not soluble
RAGHIEVAEVEGMSFPVKLDTGADVSSINAKDIKLFQKDGKDMVSFTYENDLGMQKAFTREVVDVMKITAKKGEKANVRPVVEMHVKLGELEKKIRVNLQDRGRFHYSMILGKNFLKHGALVASETNYIVTKKPDYEK | not soluble
MLSRLTSRNVLLARNVATAATQERQKIKVDNPVVDLDGDEMTRIIWKEIKNKLILPYLDLDIKYYDLGLEYRDETNDQVTIDAAHAILEHSVGIKCATITPDEARIKEFNLKKMWLSPNGTIRNILGGTVFREPILCKNIPRLVPGWTQPITIGRHAFGDQYKCTDLVIPSGSTLQLLVNKPDGSKDVHNVYDFKKSGGVGLAMYNTDESIKGFAHSCFQYALMKQWPLYLSTKNTILKKYDGRFKDIFQDIYEKKYEADFKNNKIWYEHRLIDDQVAQALKSSGGFVWACKNYDGDVQSDIVAQGYGSLGLMSSVLMCPDGKTIEAEAAHGTVTRHYREHQKGNSTSTNPIASIFAWTRGLHHRGVLDNNEALKTFSLTLEKACIDTVEEGKMTKDLSICIHGTKKGTEKGAYLITEDFLSAIDTKMAELMRQD | not soluble
MSLGFAGDGKTYTASELAIGLVMLMRQRGIEAGNRPVMFLDTETGSDWVKPRFDAENIELFTAKTRSFVDLLEAINEAESSGSVMIIDSISHFWTGLCDEYARRRNRKRGLEFSDWAWLKQEWRRFTDRFVNSQAHIIMCGRAGYEYDFFEGDDGKRQLAKTGIKMKAETETGYEPSIRIQMEKQMNIETGQVWRTARILKDRSTRIDGQVFSNPTFKNFLPHIESLNLGGEHPGIDTSRDNSELFANDGTPTWLKEKRAKEIALDEIIELLNKHHGGTSNDAKRAKADLLEKTFTSRSWERIKGMDWPTIKAGRNALWIELEGVEYAFPDEGHHHHHH | soluble
